Measurements as given in article doi:10.1101/2021.01.21.427698 (bioRxiv, 2021).

B1: human SEPT2 with a TEV-cleavable N-terminal His6-tag (natural protein)
chain: MSKQQPTQFINPETPGYVGFANLPNQVHRKSVKKGFEFTLMVVGESGLGKSTLINSLFLTDLYPERVIPGAAEKIERTVQIEASTVEIEERGVKLRLTVVDTPGYGDAINCRDCFKTIISYIDEQFERYLHDESGLNRRHIIDNRVHCCFYFISPFGHGLKPLDVAFMKAIHNKVNIVPVIAKADTLTLKERERLKKRILDEIEEHNIKIYHLPDAESDEDEDFKEQTRLLKASIPFSVVGSNQLIEAKGKKVRGRLYPWGVVEVENPEHNDFLKLRTMLITHMQDLQEVTQDLHYENFRSERLKRGGRKVENEDMNKDQILLEKEAELRRMQEMIARMQAQMQMQMQGGDGDGGALGHHV
B2: human SEPT6 (natural protein)
chain: MAATDIARQVGEGCRTVPLAGHVGFDSLPDQLVNKSVSQGFCFNILCVGETGLGKSTLMDTLFNTKFEGEPATHTQPGVQLQSNTYDLQESNVRLKLTIVSTVGFGDQINKEDSYKPIVEFIDAQFEAYLQEELKIRRVLHTYHDSRIHVCLYFIAPTGHSLKSLDLVTMKKLDSKVNIIPIIAKADAISKSELTKFKIKITSELVSNGVQIYQFPTDDESVAEINGTMNAHLPFAVIGSTEELKIGNKMMRARQYPWGTVQVENEAHCDFVKLREMLIRVNMEDLREQTHTRHYELYRRCKLEEMGFKDTDPDSKPFSLQETYEAKRNEFLGELQKKEEEMRQMFVQRVKEKEAELKEAEKELHEKFDRLKKLHQDEKKKLEDKKKSLDDEVNAFKQRKTAAELLQSQGSQAGGSQTLKRDKEKKN

Tests used:
human SEPT6 = target: B2; assay: two-tag affinity co-purification of co-expressed proteins
[1] = target: B1
[2] = target: the molecule itself; assay: negative-stain single-particle electron microscopy

B1: binds (human SEPT6).

With B2 the “stoichiometry N” value [1] was 1.

B3: human SEPT9_i3 with a noncleavable C-terminal Strep-tag-II (as in the mammalian octamers-9_i3) (natural protein)
chain: MERDRISALKRSFEVEEVETPNSTPPRRVQTPLLRATVASSTQKFQDLGVKNSEPSARHVDSLSQRSPKASLRRVELSGPKAAEPVSRRTELSIDISSKQVENAGAIGPSRFGLKRAEVLGHKTPEPAPRRTEITIVKPQESAHRRMEPPASKVPEVPTAPATDAAPKRVEIQMPKPAEAPTAPSPAQTLENSEPAPVSQLQSRLEPKPQPPVAEATPRSQEATEAAPSCVGDMADTPRDAGLKQAPASRNEKAPVDFGYVGIDSILEQMRRKAMKQGFEFNIMVVGQSGLGKSTLINTLFKSKISRKSVQPTSEERIPKTIEIKSITHDIEEKGVRMKLTVIDTPGFGDHINNENCWQPIMKFINDQYEKYLQEEVNINRKKRIPDTRVHCCLYFIPATGHSLRPLDIEFMKRLSKVVNIVPVIAKADTLTLEERVHFKQRITADLLSNGIDVYPQKEFDEDSEDRLVNEKFREMIPFAVVGSDHEYQVNGKRILGRKTKWGTIEVENTTHCEFAYLRDLLIRTHMQNIKDITSSIHFEAYRVKRLNEGSSAMANGVEEKEPEAPEM
B3: binds [2].
